Patent US6395526B1, “DNA polymerase” (Takara Shuzo Co., Ltd., priority 1995, dated 2002)

T1: second DNA polymerase-constituting protein (translation product of ORF4)
T1 chain: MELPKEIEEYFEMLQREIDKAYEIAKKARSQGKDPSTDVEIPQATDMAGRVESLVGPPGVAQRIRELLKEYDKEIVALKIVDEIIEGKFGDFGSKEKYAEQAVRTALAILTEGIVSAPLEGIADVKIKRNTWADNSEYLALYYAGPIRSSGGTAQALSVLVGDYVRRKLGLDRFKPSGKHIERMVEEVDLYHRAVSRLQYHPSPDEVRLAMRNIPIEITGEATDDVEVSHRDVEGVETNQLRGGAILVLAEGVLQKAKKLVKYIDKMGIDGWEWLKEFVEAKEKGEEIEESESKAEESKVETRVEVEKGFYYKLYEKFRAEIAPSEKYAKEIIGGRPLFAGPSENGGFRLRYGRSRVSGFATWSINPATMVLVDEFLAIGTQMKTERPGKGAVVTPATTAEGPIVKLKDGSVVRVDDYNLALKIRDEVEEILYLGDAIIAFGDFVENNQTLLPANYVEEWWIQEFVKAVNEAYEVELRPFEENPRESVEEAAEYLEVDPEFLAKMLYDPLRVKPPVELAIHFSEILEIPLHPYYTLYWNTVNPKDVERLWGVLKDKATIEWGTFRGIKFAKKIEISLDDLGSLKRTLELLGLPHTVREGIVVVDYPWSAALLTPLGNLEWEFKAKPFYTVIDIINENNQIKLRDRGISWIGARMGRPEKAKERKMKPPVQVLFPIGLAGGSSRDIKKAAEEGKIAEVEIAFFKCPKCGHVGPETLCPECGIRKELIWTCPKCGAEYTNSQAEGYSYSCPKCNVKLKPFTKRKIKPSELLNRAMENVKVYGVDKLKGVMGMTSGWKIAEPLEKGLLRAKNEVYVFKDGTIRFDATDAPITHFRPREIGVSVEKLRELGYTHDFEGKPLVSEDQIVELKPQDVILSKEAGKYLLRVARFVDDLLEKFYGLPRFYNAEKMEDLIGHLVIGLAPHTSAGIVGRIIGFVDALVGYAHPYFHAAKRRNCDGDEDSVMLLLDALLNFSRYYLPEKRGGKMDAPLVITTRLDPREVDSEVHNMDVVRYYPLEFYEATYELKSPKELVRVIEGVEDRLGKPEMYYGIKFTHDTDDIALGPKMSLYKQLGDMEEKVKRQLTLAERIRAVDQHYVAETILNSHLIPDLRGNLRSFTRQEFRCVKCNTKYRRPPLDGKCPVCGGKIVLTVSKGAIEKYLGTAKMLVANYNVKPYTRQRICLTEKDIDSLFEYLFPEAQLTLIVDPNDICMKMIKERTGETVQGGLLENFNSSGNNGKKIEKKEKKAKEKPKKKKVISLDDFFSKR

T2: second DNA polymerase-constituting protein (translation product of ORF4) (Pyrococcus furiosus, UniProt P81409 1-1263)
T2 construct: Subunit of the two-protein DNA polymerase from Pyrococcus furiosus DSM3638; Expressed in E. coli, either together with ORF3 from pFU1001 or alone from pFU-ORF4; About 140,000 Da on SDS-PAGE; also called ORF4 translation product; ORF4-derived translation product
T2 sequence: T1 chain

B1: Pfu DNA Polymerase: α-type DNA polymerase derived from Pyrococcus furiousus, manufactured by Stratagene (protein, UniProt P61875 1-775, looked up)
DNA polymerase: MILDVDYITEEGKPVIRLFKKENGKFKIEHDRTFRPYIYALLRDDSKIEEVKKITGERHGKIVRIVDVEKVEKKFLGKPITVWKLYLEHPQDVPTIREKVREHPAVVDIFEYDIPFAKRYLIDKGLIPMEGEEELKILAFDIETLYHEGEEFGKGPIIMISYADENEAKVITWKNIDLPYVEVVSSEREMIKRFLRIIREKDPDIIVTYNGDSFDFPYLAKRAEKLGIKLTIGRDGSEPKMQRIGDMTAVEVKGRIHFDLYHVITRTINLPTYTLEAVYEAIFGKPKEKVYADEIAKAWESGENLERVAKYSMEDAKATYELGKEFLPMEIQLSRLVGQPLWDVSRSSTGNLVEWFLLRKAYERNEVAPNKPSEEEYQRRLRESYTGGFVKEPEKGLWENIVYLDFRALYPSIIITHNVSPDTLNLEGCKNYDIAPQVGHKFCKDIPGFIPSLLGHLLEERQKIKTKMKETQDPIEKILLDYRQKAIKLLANSFYGYYGYAKARWYCKECAESVTAWGRKYIELVWKELEEKFGFKVLYIDTDGLYATIPGGESEEIKKKALEFVKYINSKLPGLLELEYEGFYKRGFFVTKKRYAVIDEEGKVITRGLEIVRRDWSEIAKETQARVLETILKHGDVEEAVRIVKEVIQKLANYEIPPEKLAIYEQITRPLHEYKAIGPHVAVAKKLAAKGVKIKPGMVIGYIVLRGDGPISNRAILAEEYDPKKHKYDAEYYIENQVLPAVLRILEGFGYRKEDLRYQKTRQVGLTSWLNIKKS
B2: first DNA polymerase-constituting protein (translation product of ORF3) (enzyme)
chain: MDEFVKSLLKANYLITPSAYYLLREYYEKGEFSIVELVKFARSRESYIITDALATEFLKVKGLEPILPVETKGGFVSTGESQKEQSYEESFGTKEEISQEIKEGESFISTGSEPLEEELNSIGIEEIGANEELVSNGNDNGGEAIVFDKYGYPMVYAPEEIEVEEKEYSKYEDLTIPMNPDFNYVEIKEDYDVVFDVRNVKLKPPKVKNGNGKEGEIIVEAYASLFRSRLKKLRKILRENPELDNVVDIGKLKYVKEDETVTIIGLVNSKREVNKGLIFEIEDLTGKVKVFLPKDSEDYREAFKVLPDAVVAFKGVYSKRGILYANKFYLPDVPLYRRQKPPLEEKVYAILISDIHVGSKEFCENAFIKFLEWLNGNVETKEEEEIVSRVKYLIIAGDVVDGVGVYPGQYADLTIPDIFDQYEALANLLSHVPKHITMFIAPGNHDAARQAIPQPEFYKEYAKPIYKLKNAVIISNPAVIRLHGRDFLIAHGRGIEDVVGSVPGLTHHKPGLPMVELLKMRHVAPMFGGKVPIAPDPEDLLVIEEVPDVVHMGHVHVYDAVVYRGVQLVNSATWQAQTEFQKMVNIVPTPAKVPVVDIDTAKVVKVLDFSGWC
notes: Subunit of the two-protein DNA polymerase from Pyrococcus furiosus DSM3638; Expressed in E. coli, either together with ORF4 from pFU1001 or alone from pFU-ORF3; About 90,000 Da on SDS-PAGE; also called ORF3 translation product; ORF3-derived translation product

Assays:
[1] = test system: substrate DNA (template-primer); assay: DNA polymerase activity on different forms of substrate DNA (template-primer); format: biochemical
Experimental: The DNA polymerase activity was assayed using calf thymus DNA (manufactured by Worthington) activated by DNase I treatment (activated DNA) as a substrate. DNA activation and assay of DNA polymerase activity were carried out by the method described in DNA Polymerase from Escherichia coli, 263-276 (authored by C. C. Richardson), published by Harper & Row, edited by D. R. Davis.
An assay of enzyme activity was carried out by the following method. Specifically, 50 μl of a reaction solution [20 mM Tris-HCl (pH 7.7), 15 mM MgCl2, 2 mM 2-mercaptoethanol, 0.2 mg/ml activated DNA, 40 μM each of dATP, dCTP, dGTP and dTTP, 60 nM [^3H]-dTTP (manufactured by Amersham)], containing a sample for assaying its activity, was prepared and reacted at 75° C. for 15 minutes. A 40 μl portion of this reaction mixture was then spotted onto a DE paper (manufactured by Whatman) and washed with 5% Na2HPO4 five times. The remaining radioactivity on the DE paper was assayed using a liquid scintillation counter. The amount of enzyme which incorporated 10 nmol of [^3H]-dTMP per 30 minutes into the substrate DNA, assayed by the above-described enzyme activity assay method, was defined as one unit of the enzyme.
Next, in order to compare the selectivity of the DNA polymerase of the present invention for different forms of substrate DNA, the following template-primer was examined. Aside from the activated DNA used for conventional assay of the activity, those prepared as substrates include a thermal-denatured DNA prepared by treating the activated DNA at 85° C. for 5 minutes; M13-HT Primer prepared by annealing a 45-base synthetic deoxyribooligonucleotide of the sequence as shown by SEQ ID NO:6 in Sequence Listing as a primer to the M13 phage single stranded DNA (M13mp18 ssDNA, manufactured by Takara Shuzo Co., Ltd.); M13-RNA Primer prepared by annealing a 17-base synthetic ribooligonucleotide of the sequence as shown by SEQ ID NO:7 in Sequence Listing as a primer to the same M13 phage single stranded DNA; Poly dA-Oligo dT prepared by mixing polydeoxyadenosine (Poly dA, manufactured by Pharmacia) and oligodeoxythymidine (Oligo dT, manufactured by Pharmacia) in a 20:1 molar ratio; and Poly A-Oligo dT prepared by mixing polyadenosine (Poly A, manufactured by Pharmacia) and oligodeoxythymidine in a 20:1 molar ratio.
The DNA polymerase activity was assayed using these substrates in place of the activated DNA. The relative activity of each substrate when the activity obtained in the case of using an activated DNA as a substrate is defined as 100 is shown in Table 1. For comparison, the Pfu DNA polymerase and the Taq DNA polymerase derived from Thermus aquaticus (TaKaRa Taq, manufactured by Takara Shuzo Co., Ltd.) were also examined in the same manner.

M13-HT Primer = assay: Primer extension reaction (autoradiogram, FIG. 6); format: biochemical; details: activated DNA added in great excess
Experimental: The primer extension activity was further investigated extensively. The M13-HT Primer, previously labeled with [γ-^32P]-ATP (manufactured by Amersham) and T4 polynucleotide kinase (manufactured by Takara Shuzo Co., Ltd.) at the 5′-end, was used as a substrate. Ten microliters of a reaction mixture [20 mM Tris-HCl (pH 7.7), 15 mM MgCl2, 2 mM 2-mercaptoethanol, 270 μM each of dATP, dGTP, dCTP and dTTP] containing the above substrate in a final concentration of […] and various DNA polymerases in amounts providing 0.05 units of activity as assayed with the activated DNA as a substrate was reacted at 75° C. for 1, 2, 3, or 4 minutes. After termination of the reaction, 2 μl of a reaction stop solution (95% […], 20 mM EDTA, 0.05% bromophenol blue, 0.05% xylenecyanol) was added, subjected to thermal denaturation treatment at 95° C. for 3 minutes. Two microliters of the reaction mixture was then subjected to electrophoresis using polyacrylamide gel containing 8 M urea and subsequently subjected to a preparation of autoradiogram. Also, in order to examine the extension activity in the presence of the activated DNA as a competitor substrate, the activated DNA was added to the above reaction mixture to a final concentration of […], and subjected to a preparation of an autoradiogram by the same procedures as described above.
In the figure, Pol, Pfu, and Taq show the results for the DNA polymerase of the present invention, the Pfu DNA polymerase and the Taq DNA polymerase, respectively. In addition, 1, 2, 3, and 4 each indicates reaction time (min). In the figure, the representation “−” and “+” show the results obtained in the absence and in the presence, respectively, of the activated DNA. The lanes G, A, T, and C at the left end of the figure also show the results of electrophoresis of the reaction products obtained by a chain termination reaction by the dideoxy method using the same substrate as above, which were used to estimate the length of each extension product.

λ-DNA = details: reported, enzyme used alone; cited from earlier work
[2] = molecular target: T1, second DNA polymerase-constituting …
[3] = molecular target: T2, second DNA polymerase-constituting …; assay: gel filtration (Superose 6) of the co-expressed, purified polymerase; activity peaks at about 385 kDa and about 220 kDa
Experimental: Ten milliliters of an enzyme solution obtained by collecting as an active fraction was desalted and concentrated by ultrafiltration, and dissolved in buffer A+150 mM NaCl to yield 3.5 ml of an enzyme solution. The resulting enzyme solution was then applied to a Hi Trap Heparin column (manufactured by Pharmacia), previously equilibrated with the same buffer. A chromatogram was developed on a linear concentration gradient from 150 to 650 mM NaCl using an FPLC system, to yield an active fraction eluted at 400 mM NaCl. Five milliliters of this fraction was concentrated to 120 µl of a solution including 50 mM potassium phosphate, pH 6.5, 2 mM 2-mercaptoethanol, and 75 mM NaCl by repeating desalting and concentration using ultrafiltration. The resulting concentrated solution was then applied to a gel filtration column of Superose 6 (manufactured by Pharmacia), previously equilibrated with the same buffer, and eluted with the same buffer. As a result, a fraction having a DNA polymerase activity was eluted at positions corresponding to retention times of 34.7 minutes and 38.3 minutes. […] These molecular weights corresponded to a complex formed by the translation product of ORF3 and the translation product of ORF4 in a molar ratio of 1:2 and another complex formed by the above translation products in a molar ratio of 1:1, respectively. […]

| Molecule | Relative Activity ([1]; substrate M13-HT primer, activated DNA = 100) | Relative Activity ([1]; substrate M13-RNA primer, activated DNA = 100) | Relative Activity ([1]; substrate activated DNA (defined as 100)) | Relative Activity ([1]; substrate poly dA-Oligo dT, activated DNA = 100) | Relative Activity ([1]; substrate thermal-denatured DNA, activated DNA = 100) | inhibition of primer extension by activated DNA as competitor substrate (M13-HT Primer) | strand length of DNA amplifiable by PCR (λ-DNA) | thermostable DNA polymerase activity [2] | binding result [3] |
| --- | --- | --- | --- | --- | --- | --- | --- | --- | --- |
| B1 | 23 | 0.49 | 100 | 390 | 87 | strongly inhibited | at most 3 kbp | – | – |
| B2 | – | – | – | – | – | – | – | although neither of the ORF translation products thus purified exhibited the DNA polymerase activity when assayed alone, thermostable DNA polymerase activity was exhibited when they were mixed together | binds |
